The assay addresses EGFP-GR C683A, L687-690A (rat) (UniProt P06536). The assay can be described thus: co-IP.

We go through one substance from PMC4417367.

As to heat shock protein 90 (natural protein), the percent decrease of the HSP90/GR ratio against wild type EGFP-GR was found to be 62.7%.
